In patent US20050255117A1 (Biogen, published 2005):

T1: CR-Fc (UniProt P13385 31-169)
T1 construct: not shown: Fc part; not described
T1 sequence (looked up): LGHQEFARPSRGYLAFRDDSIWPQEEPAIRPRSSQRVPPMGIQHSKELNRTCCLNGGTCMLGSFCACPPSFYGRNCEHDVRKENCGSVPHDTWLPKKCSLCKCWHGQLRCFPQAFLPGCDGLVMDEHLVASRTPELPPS


Columns and labels:
[1] = target: T1, CR-Fc; test: ELISA, ligand coated on the plate, CR-Fc detected with anti-Fc-alkaline phosphatase
Procedure: We discovered that Cripto binds directly to Activin B. We coated ELISA plates with purified Activin B, Activin A, TGFβ1, GDNF or BMP2 and incubated with CR-Fc. We then added anti-Fc antibody conjugated to alkaline phosphatase and monitored binding by adding an alkaline phosphatase substrate and developing. We observed that CR-Fc bound to wells containing Activin B, but not to Activin A or the other ligands (FIG. 8). In addition, we pre-incubated CR-Fc with Activin A or B in solution before adding to an Activin B coated plate and observed that only Activin B inhibited binding (FIG. 9).

[2] = target: T1, CR-Fc; test: Biacore, competition format in solution
[3] = target: T2, LTβR-Fc (UniProt P36941 31-227); test: Biacore, Fc fusion protein immobilized on the chip
T2 construct: Control protein on the Biacore chip; also called LT-beta receptor-Fc; control LTβR-Fc protein; not shown: Fc part; not described
T2 sequence (P36941 31-227): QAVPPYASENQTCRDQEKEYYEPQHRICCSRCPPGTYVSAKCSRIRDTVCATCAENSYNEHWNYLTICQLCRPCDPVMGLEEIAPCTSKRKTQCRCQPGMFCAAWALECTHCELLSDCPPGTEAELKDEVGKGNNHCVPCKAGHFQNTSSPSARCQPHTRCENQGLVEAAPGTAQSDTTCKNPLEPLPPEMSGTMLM
From the text: We also analyzed the Cripto-Activin B interaction using Biacore. We discovered that Activin B directly binds CR-Fc immobilized on a Biacore chip with a high intensity, but not to a control LTβR-Fc protein (FIG. 10). We also observed that Activin A binding to CR-Fc was negligible.

binding result [1] | Kd [2] [nM] | binding result [3] | Binder
no binding |  |  | Activin A (ligand, UniProt P08476 311-426, looked up) GLECDGKVNICCKKQFFVSFKDIGWNDWIIAPSGYHANYCEGECPSHIAGTSGSSLSFHSTVINHYRMRGHSPFANLKSCCVPTKLRPMSMLYYDDGQNIIKKDIQNMIVEECGCS
no binding |  |  | BMP2 (ligand, UniProt P12643 283-396, looked up) QAKHKQRKRLKSSCKRHPLYVDFSDVGWNDWIVAPPGYHAFYCHGECPFPLADHLNSTNHAIVQTLVNSVNSKIPKACCVPTELSAISMLYLDENEKVVLKNYQDMVVEGCGCR
 | ~1 | no binding | Activin B (ligand, UniProt P09529 293-407, looked up) GLECDGRTNLCCRQQFFIDFRLIGWNDWIIAPTGYYGNYCEGSCPAYLAGVPGSASSFHTAVVNQYRMRGLNPGTVNSCCIPTKLSTMSMLYFDDEYNIVKRDVPNMIVEECGCA
no binding |  |  | GDNF (ligand, UniProt P39905 78-211, looked up) SPDKQMAVLPRRERNRQAAAANPENSRGKGRRGQRGKNRGCVLTAIHLNVTDLGLGYETKEELIFRYCSGSCDAAETTYDKILKNLSRNRRLVSDKVGQACCRPIAFDDDLSFLDDNLVYHILRKHSAKRCGCI
